The NTF2 design screens of Basanta et al. (2020)

Assay: protease stability score; higher = more stable; yeast display proteolysis, trypsin and chymotrypsin;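 also: log10 excess protease needed over predicted unfolded state with 0 meaning unfolded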

For “DEENVKQVERQFKQRDEGNEERVVDQADENASINIGDKRYHGMTDAAKKLVTRLKEIRFERRVVSVTMHNGKFDANYEQTQNTNGNPRTFRYKLVIHMKNGRVKSAHIQEDG”, the protease stability score was 0.062.
“DEENVKVMEHWNKATSNNDEDKHRELADENANFNIGDKRIHGREDFVRWVQELKNRLRIKVEVNSIQAQGDKVTVHYKLKQETNGEPDTRNVKATARIQNGRVRSLTVKDNQ” showed a protease stability score of -0.116.
Work on “DEENVRLARHYADAEARGDHDTIVELLDPNAKVDVGDHEVTGDEHVREELKKKHNQWRAELKDVKASVRGDKLRLKITFVVHINGRPSEQTIDARADIKDGRFKSFSVTIDPQEERHNES” yielded a protease stability score of 0.395.
For “DEEQAHRLNEVLKTGDFERLKDQADPNVRIEVGEKRYHGREQFQKFMTIVQETVDDVHVRSIKVRGDTVNVHMVLNVNGVKAEFIVEAHVDDGRVKEIRFRATDDEQKKNWRKIVQ”, the protease stability score was 1.11.
For “DEEQAKKMEHDAKNNNFEKMAEQADPNATAQYGDHRVRGRHEVIDLITHWIEKIDRIEVDSIRVHNGRLEMHFTFEVDGVQVDVVMKAELQNGSLKVLVVTATSEEQQKRLKQAEG”, the protease stability score was 0.234.
In the case of “DEEQAKSMVHNMRQNNFEELDKLVDENVRVTVGNKKLHGREEYQKWLENWKKQADRITWDSIDVHGEKIDVEFRAVVNGRTVKQKVDIQFHNGRIKTARYQVTNEELDKIMKEMVE”, the protease stability score was 0.866.
In the case of “DEEQAKTIMEKWQKAVQTNNDELADKLYKPNVEWENGDEQRQGKEVVVKMLQKAQKKGVEFQVRKAKVEGDRVEMVYDVRIGDQTVTFTVRMDVHGGRVERVKAEASDEVKKALKKG”, the protease stability score was 0.444.
With “DEEQAKTVMEEWAKAVQKGNTEKLKKLYKPDVEWKNGDKKNQGVDQVETQVKKAKDQGVEFQVRKAEVKGNRVRVVYDAKVGDKTVTFTVEFDVDGGKIERVRVEVDEEAKKVQKQG” the protease stability score was 0.322.
Work on “DEEQARRFREFMEVVRQGDEEKIKRYVDPNARVEVGEETLHGREDIAEWWQKVVRQIRVDITITKMSVSNGKLEIHARAQYEHNGTPEDNRQVIVIQWHNGVAKTIRMEKDG” yielded a protease stability score of 0.653.
Sequence “DEEQDARRIAELLDKVFRNNDEDQFMRLMDPNAEVVVGDKTYRGREQARSAMSEIVKHFDHVHLKLDSFSNHNGRVTASNTLHADSNGKKRKVKVTIHFDVKGDKAVIKHLTIE” has a protease stability score of 0.866.
“DEEQEARDQIKKYLDIFRTGDPDQAKKLFDKDAEVRIGDKHVRGREQISDFFKKLLHKADHVEYTIQDYDVHGDKVTVHLTVVINVNGDERRNTMVIVIKVQGEKERVQSVRVG” showed a protease stability score of 1.09.
“DEEQEKHVSHYLELQKHGNEDELLRTVDPNATATVGDKEYHGMKHVAHHLVNTLKRINVKIDRLDLKVEGNTARIDQVRVQKTNGKPDRYRLKQTVQFHNGRFKRVTADVRR” showed a protease stability score of -0.14.
For “DEEQEKTIHRAHKHNDEDSFRKLFDKDATMQIGNKTFHGREEVETAVTQWHTQVDHLRVDHMRVTNGKLQIDFTAVINGQRIELRVKIKANNGKVKSVKIQARSEEDNEHLKKELD”, the protease stability score was 0.407.
Sequence “DEEQHNFANKVWEAITKGDPDEIRRLFDENVRVKVGNKTITGREELSETMEKIKKHLRMRVQVDEIEFDGDQIRVHFTANLNVNGRPVEYRAELIMHVHDGRVKHMHLRVPEQVERELEK” has a protease stability score of 1.05.
“DEEQHSVADQFNRDLRQGDPDTIRKLLDKDADLRVGDKDLHGRENLIDHMRKMHKKMQVNVDVDSVEDHNGKVIIQATVVEHHNGKPKTYQVDARLHADNGKIKNADFQETS” gave a protease stability score of -0.115.
With “DEEQIKDLLERLMRAQQHGDPDRMANYLDENVRVRIGEKDISGREQYKDWNQEQVERIDHFQVHHIEVQGDKAKIDMEMKVDGKRFRFTVRMHIRDGRIDEFRFDPTVQRKIET” the protease stability score was 0.97.
For “DEEQIVNRLWTEAQKNWEEGNETEIANQFDPNARVNVGEKDYHGTEQIMKWVKEILRHADSVRYSIDSIDVNGDTVYVHFTMVMRHNGQKESERIIATMKVDNGEARFTDIKQG”, the protease stability score was 0.737.
With “DEEQKKHVKEMIEAERTGNEEQARKLVDEDVRANYGDHEVHGRETLRKHVRDVKREWSVQIDDVKLRVHNGRVQMHFDFVRDENGRPEKMTATATAEAHNGKIKEINRQDHK” the protease stability score was -0.204.
“DEEQLDLNRRWMTALKTNNPDDAINLIDPNAKVHVGDKTLSGRENIKTYLKHLIHESRFRFRVQSMNAKNGQVDVSVKQTQSHNGQPSTNRIVVRMEVENGTITSNTIDSKS” gave a protease stability score of -0.073.
In the case of “DEEQLKEYTKEMEHNDEEQFSRMMDKDARVIVGDKTFTGREDAATMLLLIRRRVDHIEIRKITIQGDHVVVHQVVQVNGKEAEFEREVHVKNGHIKEVHIQARDEDDERVLHQAMD”, the protease stability score was 0.468.
With “DEEQLKHVAEQLRRLWENNDENQIAQLMDENVEVQVGDKTLHGRDDVRKWAQDLRKSADHVKVHSIRNRGDKVQMDFVVENNGRQTKMEVIAHVHNGRIKSLKLRTK” the protease stability score was 1.16.
In the case of “DEEQLKKVVEKLLQAIQNGNLDEIKKMLKDDVTFVLGDKTFRGVEQAVKIVKQLVDKGAEFHVERLEVKGDQAHVKTYWHAGDKTMELTVTYNVRDDKVEKVQADWSEEVKKARKHD”, the protease stability score was 0.985.
“DEEQLKMARELFEIMHTGDPDQLKEQFPPDAHFNIGDKRVSGMTEFARQVENEHKEQRRSIDIKSMDVNSPHVTIQARFEVEHNGQPHTSTATIQFQFQNGRFLNMRVQSHQ” gave a protease stability score of -0.106.
For “DEEQLKTFQQAMRDEEHGNEQRVRDLFDPNARVVYGDKVVHGREEMVKKLKRRKDEMRVELRVREYKVEEDHMSATLEVINDHNGKPDTDKQTVEARMNGDQFEQVNIQKDS”, the protease stability score was 0.17.
With “DEEQLKTIREWMNQVQRGNFDQWAKNLDKNAHVDYGDRSVTGREEWQRLMRRQKREIRMQVKVDHVSAQGENIEVQARVRFTHNGQPDETNNKITAKVHNGRVKHMRVEEDK” the protease stability score was 0.248.
“DEEQLQREANEYNKLRRHGDPDRIVELADPNARAHVGDKRVHGREDMKRMVEEERKHADHITFTDFRVDGDKLEILFVITHNGQSDTRIMTIQWDNGKIKRLEVKNN” gave a protease stability score of 0.381.
With “DEEQMDRFKDLKHALDEGDEDRLKNLVDPNARMRYGDKEVTGMEDIARQQVQRVNEINVEVDRMHVQVHNGTLEIHATVTENHNGKPKKYTFRATARAENGRFVHRVQETRG” the protease stability score was -0.101.
Work on “DEEQMERVMQRVIKALQQGDQETVRKLGKPNGEVQAGDYRNKGPEAFVMAVDVAQKVGNKFEYKETRTKGGKMQTVVKVTVGGKTVEYEVEVVVEGGKAKEWYVRLDDDFVEQAKKS” yielded a protease stability score of 0.514.
For “DEEQMKKVVEKLVQALRNGNTDEIVRMVKEDVTFKLSDETYRGQEDVRKMAKQLQDKGNKMELKHKEAKGDEAEVVTVWHVGDKTAKLKVRYVVKDDKVEKVQADWSEEVVKAYKHG”, the protease stability score was 0.122.
Sequence “DEEQMKKVVEQLLQALQNKDPEKIVQLVDEDVEFTLVDEKYKGHEDVRKLVKKLVDAGAEFRIDRHEATGDQAHVDTQWKVGDYTLKVTVTYVVRDDKVEKVEIRWSEEAKKAMKEG” has a protease stability score of 1.11.
With “DEEQNEHFSKVLQHGDFDRLAELMDPNAKAEVGDKTVHGREEFQRWIEHFKRQVDHIQYDRIDYHGNEIHASVRVHVNGNTIEFNVSLEFKNGRVTSFMMKARTKDDEDELRRLQS” the protease stability score was 1.47.
In the case of “DEEQNKLADTAMEAWNHGDPDQMVKMLDPNARVRYGDKQFHGRTDVKKWMKRLNDQARMSVTHYKIRVKGEKALLTARLEFEINGQPFRRHVKVVFNNHNGKAKQVDWQFDQDKQRKIES”, the protease stability score was 0.152.
“DEEQNRRIDDMWRAEENGDENRMKELADPNVELQIGDKQVHGMDEYVKEAKKRRDKSEISIEIKQVEVHNGSVHVDFVFTENENGTPDSKRVHVNARFDNGKLKSMSQNDTE” showed a protease stability score of 1.1.
Work on “DEEQNTRFHRMLEDLKTGNEERVQDYMDPNVKVRIGNNVLDGREHAATHMVQLNREIRFHIHNFTVQVHNGRLDIKANADADVNGKPIKFSYERYAILHNGTIKRMREQFDEHLKRQLDR” yielded a protease stability score of -0.013.
Sequence “DEEQQKEQKKRLREMIETNNEDELQRQADKDVKVVVGDQTYHGREEARKWVHELKRRVDHVRVDRVEAHGNKISARYRASVNGETQRYNMVIHITNGRIQHMRVTEG” has a protease stability score of 0.894.
In the case of “DEEQRKRMAEKFRNAIQRNDDDKIRELAPPDVSARYGDKEVHGREELLKYIDRLHKEADRIDVHDLHVKGETIILTLVVNINGHNHRYNFVAHIHDGRMHRMKVESR”, the protease stability score was 1.21.
For “DEEQRLKQVFDTLVKAFEDNDEDQIRDMMDPNVTVRVGDKEVHGRDEVARRVVDERRKVDHVHNDIKDYRVRGNHLVMKIDQVFNHNGETRKQTATMVVKVHDGRAVVETLHYD”, the protease stability score was 1.09.
In the case of “DEEQRRMVQELFKALQHGDPDKVEELVDPNAQLHYGDKTVTGREEMHRWIEHLLDKIRIHFQRVSVRSRNGRAIAHATVEVVFNGKPDTVTFDLEANVHNGKFRRIVLRFPEEAQKKLKR”, the protease stability score was 1.48.
With “DEEQTLRERFNTLKRAQDHNDEEDLRRMMDENVKVRIGDEDVHGRETANEQFARMLRRVDHVRLRLKTMHVHGEKYQFRFELQLTVNGRHEHRDVRIRFDNVNGRTNIVEMEVG” the protease stability score was 0.35.
With “DEEQVEHAMNRLVQALRSGDEKKLLDLAPEDVKMRIGDREFHGREDFEKAVKEFVDRVDHFQFEDVSIRGDDIFIHVWNQVNGRRHKQVITVKAHNGRMKHMVLDTP” the protease stability score was 0.983.
With “DEEQVEHMRRIVQEGDFDELKDNADPNARVQVGDKRYHGREQVQHVMKNFRDKADHVEISSIKQDEDHVSAEMHVEVNGERFVIRIHFVVHNGRLEQINIQVTSERDQKKLKKMLD” the protease stability score was 0.185.
“DEEQVKKVLETLVKALQKGNIEEILKMLKEDVEFVLIDEKYQGREDAKKIVKQLVDQGMEVHFDRHEVTGNQAHVQTRWHYGNKEAHAEVTYYVKGDTVDKVDIQWSETAKKAVKEG” showed a protease stability score of 1.13.
Sequence “DEEQVKKVVEELLKAVHNGNVDQIKKIVKENVEFTLGDKTMKGQEDVEKDVKQLHDKGADFKVDEVEVTGDHATANTKWQIGDQKAHVQVHYQVRDDTVERVEVRWSEDAKKAIKQG” has a protease stability score of -0.141.
In the case of “DEEQVKKVVKVLMEYFKRGDVDQIVRMIDEDVEFKLLDEKKKGQEQVKTVIKKLHDQGAEVHVDHAEVEGDKATVDTRWHIGDHTMEATVEYYVEGDRVKKVKVQWSEEAKKALHAG”, the protease stability score was 1.06.
In the case of “DEEQVNKVRTLVESNDEKTMQELADPNAKAEIGNKRFHGMHRAAHVLTKLRKQADTVRYREIDVHNGQVHAHFSMHFNGKRIDARVVLKVRNGRLRHMKIEATDPHLEEELERQVQ”, the protease stability score was 0.268.
In the case of “DEEQVQKVVDKLIKAVQNGNRKQIVDLVKENVEFTLADETYKGKDDVQTVIKRLHEVGAEVHVDRYDVRGDTAHADTRWHMDDQEMHVTVEYVVRGDRVEQVHVQWSEEAKKVHKKG”, the protease stability score was -0.044.
“DEEQVREAMEIVKHGDPDKFRKQADKDVRLTIGDTEYHGREDVMTVLVSFLRTVDHLNIKSVDVRGDKAVINADFNYNGKEININIHLEFHNGRLKSVQIQATNREDQKDLKRIIK” showed a protease stability score of 1.28.
In the case of “DEEQVRKMLETILKMMVNGNLEEVKKVLKPNVDYQLGDEKLQGQQVAERADKYIKKVGVRAEIKRAKVEGDTAELDYEFTADGRTVRVTVQAHAKDGRLDQWRVEVSDTAKKIRQKG”, the protease stability score was 0.736.
In the case of “DEEQVRKVVEQLLKMLQNKNTEEIVKLVKEDATFTLGDETRRGQEDVRKLVQRLKEQGAEFHTHEVRVKGGEAKAKTQWHVANREVHAEVKYVVRGDKVEKVEVRWSEEAKKALKEG”, the protease stability score was -0.071.
With “DEEQVTKAKNLLENWKTNNPEEVKKLADPNARAQIGDQVIHGMDKYVTFLHKQRSKMRFELHIRSMTADNGRVKMTFDHVVDHNGRPDKNDARMSVQFENGKIKELVIQKDK” the protease stability score was -0.295.
